Tests used:
human CD3ε (human) = human CD3ε (human) (UniProt P07766); experiment: BIACORE and Scatchard; monovalent KD of anti-CD3 arm; legend prints 2.5 nM
[1] = biological target: truncated human FcRH5 (deletion of amino acids 1-744) with N-terminal gD tag (human) (UniProt Q96RD9); experiment: cell-based or functional assay
truncated human FcRH5 (deletion of amino acids 1-744) with N-terminal gD tag (human), sequence (Q96RD9 745-977, stated change not applied): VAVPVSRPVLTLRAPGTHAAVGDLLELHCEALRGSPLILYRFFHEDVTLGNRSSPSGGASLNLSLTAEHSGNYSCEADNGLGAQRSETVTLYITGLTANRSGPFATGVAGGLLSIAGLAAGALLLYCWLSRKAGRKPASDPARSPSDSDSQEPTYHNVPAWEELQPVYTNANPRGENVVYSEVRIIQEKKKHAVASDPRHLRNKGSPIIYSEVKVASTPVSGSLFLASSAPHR

human CD3ε (human), sequence (P07766 22-126): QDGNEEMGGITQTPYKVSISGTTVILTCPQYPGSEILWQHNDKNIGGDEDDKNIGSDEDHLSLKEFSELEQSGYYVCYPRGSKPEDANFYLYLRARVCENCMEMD

Substance | Kd (human CD3ε (human)) [nM] | killing of cells expressing the truncated target, EC50 [1] [nM]
anti-CD3 antibody huUCHT1.v9 | 2 | 
anti-gD/UCHT1.v9 TDB (bispecific antibody) |  | 0.19

— patent publication US20160368985A1
